In US20260137783A1 (CRISPR THERAPEUTICS, published 2026):

Target: T1, Cell surface CD117 on CD117+ cells (SKMEL / SKMEL-3 cells, CD34+ cells / HSPCs, Kasumi-1 cells) (UniProt P10721 26-976, limits assumed)
T1 construct: whole, on cells; also called cKIT; C-kit
Assay: flow cytometry on SKMEL cells and CD34 cells (both CD117+)

T1 sequence (P10721 26-976 limits assumed): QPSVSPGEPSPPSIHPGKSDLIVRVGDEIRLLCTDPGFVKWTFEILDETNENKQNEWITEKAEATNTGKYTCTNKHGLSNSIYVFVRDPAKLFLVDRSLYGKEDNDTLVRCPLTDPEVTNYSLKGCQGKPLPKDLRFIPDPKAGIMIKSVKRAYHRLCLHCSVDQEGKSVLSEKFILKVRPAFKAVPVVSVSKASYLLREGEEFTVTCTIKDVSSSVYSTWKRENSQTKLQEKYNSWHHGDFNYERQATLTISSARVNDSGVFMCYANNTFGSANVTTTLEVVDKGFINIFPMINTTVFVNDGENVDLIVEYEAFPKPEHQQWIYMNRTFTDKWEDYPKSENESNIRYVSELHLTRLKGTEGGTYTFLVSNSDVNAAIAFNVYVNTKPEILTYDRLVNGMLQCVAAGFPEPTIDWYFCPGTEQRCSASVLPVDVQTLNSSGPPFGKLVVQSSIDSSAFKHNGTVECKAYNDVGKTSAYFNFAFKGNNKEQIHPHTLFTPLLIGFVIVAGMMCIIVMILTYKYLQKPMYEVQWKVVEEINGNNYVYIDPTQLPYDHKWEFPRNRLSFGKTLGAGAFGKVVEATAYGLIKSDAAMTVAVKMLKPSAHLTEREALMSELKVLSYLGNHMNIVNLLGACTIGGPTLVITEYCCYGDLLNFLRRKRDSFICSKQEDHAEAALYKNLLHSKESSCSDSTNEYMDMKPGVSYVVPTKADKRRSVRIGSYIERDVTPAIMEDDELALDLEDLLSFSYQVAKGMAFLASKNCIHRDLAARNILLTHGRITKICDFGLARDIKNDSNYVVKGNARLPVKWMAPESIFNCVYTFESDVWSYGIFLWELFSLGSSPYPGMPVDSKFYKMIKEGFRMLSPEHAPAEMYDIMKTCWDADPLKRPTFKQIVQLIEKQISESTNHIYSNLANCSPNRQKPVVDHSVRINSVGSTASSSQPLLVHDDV

binding result | Binder
binds | Anti-CD117 VHH P29 (monovalent form) (VHH, Secreted from Expi293 cells) VHH: QVHLVESGGGLVQAGGSLGLSCAASGHTFSNYAMGWFRQAPGKEREFVAAISWSGGSTLYADSVKGRFTISRDNGENTVYLQMNSLKPEDTAVYYCALDSTGVYGTGYVSSRKGRYEYWGQGTLVTVSS
binds | Anti-CD117 VHH P38 (monovalent form) (VHH) VHH: EVQLVESGGGLVQAGGSLRLSCAASGRTSGSYVMGWFRQAPGKEREFVAAISWSAGMTYYADSVKGRFTISRDNAKNTVYLQMNSLKPEDTAVYYCAADQRGVPAYYSDYALYDYWGQGTQVTVSS
binds | Anti-CD117 VHH P35 (monovalent form) (VHH, Secreted from Expi293 cells) VHH: QVQLVESGGGLVQAGGSLRLSCAASGGTFSIYPVGWFRQAPGKQREFVAAIGWSASGTYYGDSVEGRFTVSRDNARSTVYLRMSSLKPDDTAVYYCAAASGSNWRLGAIDEYDSWGQGTQVTVSS
binds | Anti-CD117 VHH P27 (monovalent form) (VHH, Secreted from Expi293 cells) VHH: EVQLVESGGGLVRAGGSLRLSCAASGRTTFSTYWLGWFRQAPGKNREFVAAISWSAGMAYYQDSKGRFTISRDNTKNTAYLQMNSLQPEDTAVYYCAAGRFHPIRVDTALYWAQGTQVTVSS
binds | Anti-CD117 VHH P10 (monovalent form) (VHH, Secreted from Expi293 cells) VHH: QVQLVESGGGLVQAGGSLRLSCVASGRTFSSYAMGWFRQGPGKEREFAAAILSNGLTTYYADSVKGRFTISRDNAKDTVYLQMNSLKPEDTANYYCAAAFTPEFRDGGIWDDASVDYWGQGTQVTVSS
binds | Anti-CD117 VHH P12 (monovalent form) (VHH, Secreted from Expi293 cells) VHH: QVQLVESGGGLVQAGGSLRLSCTASGDTFSSYSMGWFRQGPGKEREFVGGIRWSGGTTYYADSVKGRFTISRDNAKNTVYLQMNSLKREDTAVYYCAAVRRRWLIWQEEEYDYWGQGTLVTVSS
binds | Anti-CD117 VHH P31 (monovalent form) (VHH, Secreted from Expi293 cells) VHH: EVQLVESGGGLVRAGGSLRLSCAASGRTFTYDARAWFRQAPGKEREFVAAISWSGGSTYYPNSMKGRFTISRDNAKNTVYLQMNSLKPEDTAVYYCAADESFPAYYSDYALYRYWGQGTLVTVSS
